B1: Fab clone 11 (Fab, V domains shown)
VH: VKLLEQSGGGLVQPGGSLRLSCAVSGVTFSAYAMSWVRQAPGKGLEWVSGISGSGDSTDYADSVKGRLTISRDNSKNTLYLQMNSLRAEDTAIYYCASHLPDYWNLDYTRFFYYMDVWGKGTTVTVSS
VL: ELTQSPGTLSLSPGERATLSCRATQSISSNYLAWYQQRPGQAPRLLIYGASNRATDIPDRFSGSGSGTDFTLTISRLEPEDFAMYYCQQYDISPYTFGQGTKLEIK
notes: Human IgG1 kappa Fab from a pComb3 phage library, made as soluble Fab in E. coli; also called Fab 11; rsv 11H/11L
B2: Fab clone 19 (Fab, V domains shown)
VH: QVKLLEESGGGLVRLAGSLRLSCAASGTTLSGYTMHWVRQAPGKGLEWVSSITGGSNFINYSDSVKGRFTISRDNAKNSLYLQMNSLTAEDTAVYYCATAPIAPPYFDHWGQGTLVTVSS
VL: ELTQSPSSLSASVGDRVTITCRATQSVSNFLNWYQQKPGEAPTLLIYDASTSQSGVPSRFSGSGSGMDFSLTISSLQPEDLAMYYCQASINTPLFGGGTRIDMR
notes: Human IgG1 kappa Fab made as soluble Fab in E. coli; Variable domains are identical to clone 13; also called Fab 19; RSV Fab 19
B3: Fab clone 13 (Fab, V domains shown)
VH: B2 VH
VL: B2 VL
notes: Human IgG1 kappa Fab made as soluble Fab in E. coli; Variable domains are identical to clone 19; also called Fab 13; rsv 13H/13L

Target: RSV (subgroup A) F glycoprotein (respiratory syncytial virus subgroup A …, UniProt P03420 26-574)
Sequence (P03420 26-574): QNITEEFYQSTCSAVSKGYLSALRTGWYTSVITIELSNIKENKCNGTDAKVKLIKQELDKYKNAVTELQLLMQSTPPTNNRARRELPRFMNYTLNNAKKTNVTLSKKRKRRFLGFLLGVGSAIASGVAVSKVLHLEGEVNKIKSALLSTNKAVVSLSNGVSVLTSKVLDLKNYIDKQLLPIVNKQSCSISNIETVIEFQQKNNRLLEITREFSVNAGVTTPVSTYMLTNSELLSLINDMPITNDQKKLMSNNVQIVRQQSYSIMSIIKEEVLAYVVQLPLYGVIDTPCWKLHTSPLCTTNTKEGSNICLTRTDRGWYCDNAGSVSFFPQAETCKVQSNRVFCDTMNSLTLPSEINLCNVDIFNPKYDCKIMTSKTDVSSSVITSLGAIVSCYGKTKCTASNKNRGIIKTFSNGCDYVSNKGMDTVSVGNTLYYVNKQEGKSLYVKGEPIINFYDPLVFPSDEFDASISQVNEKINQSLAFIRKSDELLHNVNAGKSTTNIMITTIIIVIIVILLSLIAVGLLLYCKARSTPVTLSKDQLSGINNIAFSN
Assay: cell-based or functional assay

Row | Binder | Concentration of Fab Needed for 60% Plaque Reduction (µg/ml), RSV; purified from lysate [µg/mL] | Maximum Neutralization of RSV (Subgroup A); purified from lysate [%]
1 | B1 | 1.8 | 88
2 | B2 | 0.4 | 100
3 | B3 | 0.2 | 98

Target: T1, baculovirus-expressed FG fusion glycoprotein (respiratory syncytial virus, UniProt P03420 26-489; P03423 97-279)
T1 construct: also called RSV FG glycoprotein; recombinant FG glycoprotein
T1 sequence (P03420 26-489, tags or fused parts left off): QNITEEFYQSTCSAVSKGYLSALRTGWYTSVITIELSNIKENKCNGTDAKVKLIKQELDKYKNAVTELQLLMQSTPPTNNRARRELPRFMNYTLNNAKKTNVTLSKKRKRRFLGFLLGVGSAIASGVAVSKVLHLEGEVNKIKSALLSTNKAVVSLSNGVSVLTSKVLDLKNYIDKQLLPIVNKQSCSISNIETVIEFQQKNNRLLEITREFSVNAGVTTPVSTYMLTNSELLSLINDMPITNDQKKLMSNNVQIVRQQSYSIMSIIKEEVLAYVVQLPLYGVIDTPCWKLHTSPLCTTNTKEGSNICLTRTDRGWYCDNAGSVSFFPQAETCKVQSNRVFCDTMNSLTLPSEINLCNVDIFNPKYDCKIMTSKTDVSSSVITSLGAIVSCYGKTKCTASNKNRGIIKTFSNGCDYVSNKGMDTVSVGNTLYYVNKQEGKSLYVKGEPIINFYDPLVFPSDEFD
Assay: inhibition ELISA, free FG against coated FG

Row | Binder | Ka [M⁻¹]
4 | B1 | ~1e+08
5 | B2 | ~1e+08
6 | B3 | ~1e+08

— US7364737 (Scripps Research, dated 2008)
